Data from paper PMC2596764 (Nature immunology, 2008).
Non-standard residues stand in square brackets, D forms with d. Residues, ends and D or L forms follow the SMILES beside them. No end group written: not given here. pS = N[C@@H](COP(=O)(O)O)C(=O)O

Molecular target: HLA-A*0201 (HLA-A2) heavy chain refolded with β2-microglobulin
Test: radioligand binding

IC50 [nM]	Molecule
83.5	YLDSGIHSGA (not fully specified) [… (non-phosphorylated counterpart of YLDpSGIHSGA)]
793	RTYSGPMNKV (not fully specified) [… (non-phosphorylated counterpart of RTYpSGPMNKV)]
146	YLD[pS]GIHSGA [YLDpSGIHSGA]
219	GLLGSPVRA (not fully specified) [… (non-phosphorylated counterpart of GLLGpSPVRA)]
11.4	KMDSFLDMQL (not fully specified) [… (non-phosphorylated counterpart of KMDpSFLDMQL)]
117	RTY[pS]GPMNKV [RTYpSGPMNKV]
408	RTFSPTYGL (not fully specified) [… (non-phosphorylated counterpart of RTFpSPTYGL)]
11.2	RQA[pS]IELPSM [RQApSIELPSM]
62.4	KLIDRTE[pS]L [KLIDRTEpSL]
32.5	RTF[pS]PTYGL [RTFpSPTYGL]
284	RQASLSISV (not fully specified) [… (non-phosphorylated counterpart of RQApSLSISV)]
731	RVASPTSGV (not fully specified) [… (non-phosphorylated counterpart of RVApSPTSGV)]
38.5	RQA[pS]LSISV [RQApSLSISV]
178	RVA[pS]PTSGV [RVApSPTSGV]
3.4	KMD[pS]FLDMQL [KMDpSFLDMQL]
169	GLLG[pS]PVRA [GLLGpSPVRA]
102	KLIDRTESL (not fully specified) [… (non-phosphorylated counterpart of KLIDRTEpSL)]

Molecular target: HLA-A2-R65A heavy chain refolded with β2-microglobulin
Test: radioligand binding

IC50 [nM]	Molecule
20	RQA[pS]IELPSM [RQApSIELPSM]

Molecular target: HLA-A*0201 (HLA-A2) heavy chain refolded with β2-microglobulin
Test: radioligand binding
Remark: another data set of the same source

IC50 [nM]	Molecule
58.7	AQApSIELPSM (peptide)

Molecular target: HLA-A2-R65A heavy chain refolded with β2-microglobulin
Test: radioligand binding
Remark: another data set of the same source

IC50 [nM]	Molecule
972	AQApSIELPSM (peptide)

Molecular target: HLA-A2 (Homo sapiens, UniProt P04439, D140Y/D185E/D98H/E176V/E277Q/G131W/G231S/I119V/I121R/I166T/I218V/L300P/L318F/N151K/N90K/P208A/P217A/Q86G/Q94H/R138H/R169H/T345S)
Test: Competitive peptide binding assay to purified HLA-A2

IC50 [nM]	Molecule
3.4	CSCC[C@H](NC(=O)[C@H](CC(=O)O)NC(=O)[C@H](CC(C)C)NC(=O)[C@H](Cc1ccccc1)NC(=O)[C@H](COP(=O)(O)O)NC(=O)[C@H](CC(=O)O)NC(=O)[C@H](CCSC)NC(=O)[C@@H](N)CCCCN)C(=O)N[C@@H](CCC(N)=O)C(=O)N[C@@H](CC(C)C)C(=O)O [KMDpSFLDMQL] (H-KMD[pS]FLDMQL-OH)
32.5	CC(C)C[C@H](NC(=O)CNC(=O)[C@H](Cc1ccc(O)cc1)NC(=O)[C@@H](NC(=O)[C@@H]1CCCN1C(=O)[C@H](COP(=O)(O)O)NC(=O)[C@H](Cc1ccccc1)NC(=O)[C@@H](NC(=O)[C@@H](N)CCCNC(=N)N)[C@@H](C)O)[C@@H](C)O)C(=O)O [RTFpSPTYGL] (H-RTF[pS]PTYGL-OH)
117	CSCC[C@H](NC(=O)[C@@H]1CCCN1C(=O)CNC(=O)[C@H](COP(=O)(O)O)NC(=O)[C@H](Cc1ccc(O)cc1)NC(=O)[C@@H](NC(=O)[C@@H](N)CCCNC(=N)N)[C@@H](C)O)C(=O)N[C@@H](CC(N)=O)C(=O)N[C@@H](CCCCN)C(=O)N[C@H](C(=O)O)C(C)C [RTYpSGPMNKV] (H-RTY[pS]GPMNKV-OH)
62.4	CC[C@H](C)[C@H](NC(=O)[C@H](CC(C)C)NC(=O)[C@@H](N)CCCCN)C(=O)N[C@@H](CC(=O)O)C(=O)N[C@@H](CCCNC(=N)N)C(=O)N[C@H](C(=O)N[C@@H](CCC(=O)O)C(=O)N[C@@H](COP(=O)(O)O)C(=O)N[C@@H](CC(C)C)C(=O)O)[C@@H](C)O [KLIDRTEpSL] (H-KLIDRTE[pS]L-OH)
169	CC(C)C[C@H](NC(=O)CN)C(=O)N[C@@H](CC(C)C)C(=O)NCC(=O)N[C@@H](COP(=O)(O)O)C(=O)N1CCC[C@H]1C(=O)N[C@H](C(=O)N[C@@H](CCCNC(=N)N)C(=O)N[C@@H](C)C(=O)O)C(C)C [GLLGpSPVRA] (H-GLLG[pS]PVRA-OH)
178	CC(C)[C@H](NC(=O)CNC(=O)[C@H](CO)NC(=O)[C@@H](NC(=O)[C@@H]1CCCN1C(=O)[C@H](COP(=O)(O)O)NC(=O)[C@H](C)NC(=O)[C@@H](NC(=O)[C@@H](N)CCCNC(=N)N)C(C)C)[C@@H](C)O)C(=O)O [RVApSPTSGV] (H-RVA[pS]PTSGV-OH)
11.2	CC[C@H](C)[C@H](NC(=O)[C@H](COP(=O)(O)O)NC(=O)[C@H](C)NC(=O)[C@H](CCC(N)=O)NC(=O)[C@@H](N)CCCNC(=N)N)C(=O)N[C@@H](CCC(=O)O)C(=O)N[C@@H](CC(C)C)C(=O)N1CCC[C@H]1C(=O)N[C@@H](CO)C(=O)N[C@@H](CCSC)C(=O)O [RQApSIELPSM] (H-RQA[pS]IELPSM-OH)
146	CC[C@H](C)[C@H](NC(=O)CNC(=O)[C@H](COP(=O)(O)O)NC(=O)[C@H](CC(=O)O)NC(=O)[C@H](CC(C)C)NC(=O)[C@@H](N)Cc1ccc(O)cc1)C(=O)N[C@@H](Cc1c[nH]cn1)C(=O)N[C@@H](CO)C(=O)NCC(=O)N[C@@H](C)C(=O)O [YLDpSGIHSGA] (H-YLD[pS]GIHSGA-OH)

Molecule	IC50 [nM]
CC[C@H](C)[C@H](NC(=O)[C@H](COP(=O)(O)O)NC(=O)[C@H](C)NC(=O)[C@H](CCC(N)=O)NC(=O)[C@H](C)N)C(=O)N[C@@H](CCC(=O)O)C(=O)N[C@@H](CC(C)C)C(=O)N1CCC[C@H]1C(=O)N[C@@H](CO)C(=O)N[C@@H](CCSC)C(=O)O [AQApSIELPSM]	58.7
CC[C@H](C)[C@H](NC(=O)[C@H](CO)NC(=O)[C@H](C)NC(=O)[C@H](CCC(N)=O)NC(=O)[C@@H](N)CCCNC(=N)N)C(=O)N[C@@H](CCC(=O)O)C(=O)N[C@@H](CC(C)C)C(=O)N1CCC[C@H]1C(=O)N[C@@H](CO)C(=O)N[C@@H](CCSC)C(=O)O (H-RQASIELPSM-OH)	1770
CC[C@H](C)[C@H](NC(=O)[C@H](CO)NC(=O)[C@H](C)NC(=O)[C@H](CC(C)C)NC(=O)[C@@H](N)CCCNC(=N)N)C(=O)N[C@@H](CCC(=O)O)C(=O)N[C@@H](CC(C)C)C(=O)N1CCC[C@H]1C(=O)N[C@@H](CO)C(=O)N[C@H](C(=O)O)C(C)C (H-RLASIELPSV-OH)	0.9
CC[C@H](C)[C@H](NC(=O)[C@H](CO)NC(=O)[C@H](CC(C)C)NC(=O)[C@H](COP(=O)(O)O)NC(=O)[C@H](C)NC(=O)[C@H](CCC(N)=O)NC(=O)[C@@H](N)CCCNC(=N)N)C(=O)N[C@@H](CO)C(=O)N[C@H](C(=O)O)C(C)C [RQApSLSISV] (H-RQA[pS]LSISV-OH)	38.5
CC[C@H](C)[C@H](NC(=O)[C@H](CO)NC(=O)[C@H](C)NC(=O)[C@H](CCC(N)=O)NC(=O)[C@H](C)N)C(=O)N[C@@H](CCC(=O)O)C(=O)N[C@@H](CC(C)C)C(=O)N1CCC[C@H]1C(=O)N[C@@H](CO)C(=O)N[C@@H](CCSC)C(=O)O	1180

Molecular target: HLA-A2-R65A (Ala substitution for Arg65) (Homo sapiens, UniProt P04439, D140Y/D185E/D98H/E176V/E277Q/G131W/G231S/I119V/I121R/I166T/I218V/N151K/N90K/P208A/P217A/Q86G/Q94H/R138H/R169H)
Test: Competitive peptide binding assay to mutant HLA-A2-R65A

Molecule	IC50 [nM]
CC[C@H](C)[C@H](NC(=O)[C@H](COP(=O)(O)O)NC(=O)[C@H](C)NC(=O)[C@H](CCC(N)=O)NC(=O)[C@H](C)N)C(=O)N[C@@H](CCC(=O)O)C(=O)N[C@@H](CC(C)C)C(=O)N1CCC[C@H]1C(=O)N[C@@H](CO)C(=O)N[C@@H](CCSC)C(=O)O [AQApSIELPSM]	972
CC[C@H](C)[C@H](NC(=O)[C@H](CO)NC(=O)[C@H](C)NC(=O)[C@H](CCC(N)=O)NC(=O)[C@@H](N)CCCNC(=N)N)C(=O)N[C@@H](CCC(=O)O)C(=O)N[C@@H](CC(C)C)C(=O)N1CCC[C@H]1C(=O)N[C@@H](CO)C(=O)N[C@@H](CCSC)C(=O)O (H-RQASIELPSM-OH)	2140
CC[C@H](C)[C@H](NC(=O)[C@H](COP(=O)(O)O)NC(=O)[C@H](C)NC(=O)[C@H](CCC(N)=O)NC(=O)[C@@H](N)CCCNC(=N)N)C(=O)N[C@@H](CCC(=O)O)C(=O)N[C@@H](CC(C)C)C(=O)N1CCC[C@H]1C(=O)N[C@@H](CO)C(=O)N[C@@H](CCSC)C(=O)O [RQApSIELPSM] (H-RQA[pS]IELPSM-OH)	20
CC[C@H](C)[C@H](NC(=O)[C@H](CO)NC(=O)[C@H](C)NC(=O)[C@H](CCC(N)=O)NC(=O)[C@H](C)N)C(=O)N[C@@H](CCC(=O)O)C(=O)N[C@@H](CC(C)C)C(=O)N1CCC[C@H]1C(=O)N[C@@H](CO)C(=O)N[C@@H](CCSC)C(=O)O	1060
